Values of other authors, collected in article PMC9241073.
Like-named read-outs stand apart in the source and are kept apart here.

Legend:
PAK1 (Homo sapiens) [1] = molecular target: PAK1 (Homo sapiens) (UniProt Q13153)
PAK1 (Homo sapiens) [2] = molecular target: PAK1 (Homo sapiens) (UniProt Q13153); remark: listed apart in the source

Chain of UniProt Q13153 (Q13153 2-545): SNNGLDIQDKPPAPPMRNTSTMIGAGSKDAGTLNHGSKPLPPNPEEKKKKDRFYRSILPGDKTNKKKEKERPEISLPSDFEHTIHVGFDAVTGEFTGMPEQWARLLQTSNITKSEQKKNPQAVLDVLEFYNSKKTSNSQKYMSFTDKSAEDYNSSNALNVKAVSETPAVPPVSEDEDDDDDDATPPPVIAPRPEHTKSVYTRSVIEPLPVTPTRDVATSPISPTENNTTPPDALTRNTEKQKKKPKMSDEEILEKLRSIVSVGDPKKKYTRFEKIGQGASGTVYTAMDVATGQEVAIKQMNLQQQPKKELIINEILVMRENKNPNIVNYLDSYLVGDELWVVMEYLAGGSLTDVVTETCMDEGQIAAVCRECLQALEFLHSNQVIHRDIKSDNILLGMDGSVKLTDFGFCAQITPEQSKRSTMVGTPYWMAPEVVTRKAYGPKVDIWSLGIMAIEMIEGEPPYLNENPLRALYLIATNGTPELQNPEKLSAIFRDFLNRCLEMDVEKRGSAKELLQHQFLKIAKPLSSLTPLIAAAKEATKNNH

- Kd (PAK1 (Homo sapiens) [1]): > 2000 nM
- Kd (PAK1 (Homo sapiens) [2]): > 1000 nM
Substance: CDC42 (from UniProt P60953)
